Data published in article doi:10.1101/2022.02.17.480956 (bioRxiv, 2022).
Each block holds one binder with its values, some of them ahead of it.

Experiments:
COUP-TFII-GST [1] = molecular target: T1, COUP-TFII-GST (mouse, UniProt P43135 1-414); assay: EMSA
T1 sequence: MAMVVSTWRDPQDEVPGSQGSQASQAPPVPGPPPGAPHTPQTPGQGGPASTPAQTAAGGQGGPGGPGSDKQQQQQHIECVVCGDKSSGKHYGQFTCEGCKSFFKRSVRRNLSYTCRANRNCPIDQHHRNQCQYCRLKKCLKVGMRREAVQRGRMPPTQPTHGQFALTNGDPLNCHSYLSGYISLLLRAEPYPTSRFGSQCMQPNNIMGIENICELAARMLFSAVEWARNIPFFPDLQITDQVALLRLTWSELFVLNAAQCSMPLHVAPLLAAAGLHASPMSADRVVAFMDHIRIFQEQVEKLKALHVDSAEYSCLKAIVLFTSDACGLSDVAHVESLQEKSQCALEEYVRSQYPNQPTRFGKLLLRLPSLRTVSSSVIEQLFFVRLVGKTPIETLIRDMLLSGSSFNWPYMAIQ

COUP-TFII-GST [2] = molecular target: T2, COUP-TFII-GST (mouse, UniProt P43135 1-414); assay: native gel or EMSA
T2 sequence (looked up): T1 sequence

[3] = molecular target: T3, recombinant COUP-TFII (construct not told for this experiment) (mouse, UniProt P43135 1-414); assay: native gel or EMSA
T3 sequence (looked up): T1 sequence

COUP-TFII;NKX2-1 = molecular target: T4, COUP-TFII;NKX2-1 (mouse;, UniProt P43135;P50220 1-414;1-372, |); assay: EMSA
T4 sequence 1: T1 sequence
T4 sequence 2: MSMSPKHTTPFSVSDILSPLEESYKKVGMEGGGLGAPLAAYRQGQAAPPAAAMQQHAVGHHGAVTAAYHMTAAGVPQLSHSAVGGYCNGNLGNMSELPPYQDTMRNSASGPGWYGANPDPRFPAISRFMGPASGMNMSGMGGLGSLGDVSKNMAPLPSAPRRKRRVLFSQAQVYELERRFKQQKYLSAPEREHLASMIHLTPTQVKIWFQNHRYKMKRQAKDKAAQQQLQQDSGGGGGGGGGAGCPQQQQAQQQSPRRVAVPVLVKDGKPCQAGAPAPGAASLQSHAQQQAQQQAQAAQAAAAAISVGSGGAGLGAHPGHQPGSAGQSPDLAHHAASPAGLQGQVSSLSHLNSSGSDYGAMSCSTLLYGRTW

B1: CE_ΔC_AB (dsDNA)
DNA 1: CCATGCACTTGAAAAAAAATGGAAAAACACCTCC
DNA 2: GGAGGTGTTTTTCCATTTTTTTTCAAGTGCATGG
binding result (COUP-TFII-GST [1]): no binding

binding result (COUP-TFII-GST [2]): binds
binding result [3]: binds
B2: recombinant NKX2-3 (natural protein, mouse, UniProt P97334 1-362, looked up)
chain: MMLPSPVTSTPFSVKDILNLEQQRHFHGAHLQAELEQHFHSAPCMLATAEGTQFSDAGEEDEEEEGEKLSYLNSLAAAEGHGDSGLCPQSYVHTVLRDACSGPKEQEEEVVSERSQKSCQLKKSLEAAGDCKTSEDGERPKPRSRRKPRVLFSQAQVFELERRFKQQRYLSAPEREHLASSLKLTSTQVKIWFQNRRYKCKRQRQDKSLELGTHAPPPPPRRVAVPVLVRDGKPCVTPSAQTYGSPYGVGAGAYSYNSFPAYGYGNSAAAAAAAAAAAAAAAAYSGSYGCAYPTGGGGGGGGTASAATTAMQPACSATGGGSFVNVSNLGGFGSGGGAQPLHQGAAAGSACTQGTLQGIRAW

B3: Nrp2 NCCE (dsDNA)
DNA 1: TTGCCAAATTATGTGACCTTTGGCAGACCAGCTG
DNA 2: CAGCTGGTCTGCCAAAGGTCACATAATTTGGCAA
binding result (COUP-TFII;NKX2-1): binds
